Measured values reported in the supplement of paper PMC9732359.
± gives the uncertainty stated by the source.

Assay: protein stability index of a GFP-peptide fusion (yeast GPS) (PSI 1-4); higher = more stable; sorted into four equal gates, so the index is relative within each strain
How it was run: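 The protein stability index of a peptide was calculated by multiplying its read frequency in each gate by that gate's number and adding the products. The peptides were tiled 17-residue stretches of yeast proteins, fused downstream of GFP on a Cherry-expressing plasmid and carried in yeast as a pooled library. Mid-log cultures in leucine-free medium were sorted into four equal gates by GFP/Cherry ratio, and each gate's plasmids were PCR-amplified and Illumina-sequenced.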

Row | Sequence | protein stability index (doa10∆) | protein stability index (pdr5∆) | protein stability index (san1∆) | protein stability index (ubr1∆)
1 | AHVFVGTCNGDITTSIM [RPN1] | 2.72 ± 0.048 | 2.78 ± 0.044 | 2.63 ± 0.047 | 2.62 ± 0.053
2 | EKFSPKSFISKLLGIGD [SRP54] | 3.49 ± 0.14 | 3.31 ± 0.15 | 2.68 ± 0.2 | 3.21 ± 0.17
3 | LLQLIQSQPQEKFSEKM [ECM29] | 2.49 ± 0.098 | 2.02 ± 0.098 | 2.46 ± 0.093 | 2.47 ± 0.071
4 | IRDLEKLYDKTENDIKA [RPT4] | 2.66 ± 0.18 | 2.6 ± 0.21 | 1.91 ± 0.22 | 2.43 ± 0.22
5 | LEQVEFEKNTILQQRSK [MED4] | 2.94 ± 0.22 | 3.44 ± 0.13 | 2.77 ± 0.11 | 3.27 ± 0.1
6 | IAEGQKKFATVPTGGAS [RPP2B] | 2.81 ± 0.057 | 2.89 ± 0.056 | 2.69 ± 0.06 | 2.53 ± 0.04
7 | SRNKALELNLSVLHSWV [YJL039C/NUP192] |  | 2.5 ± 0.14 | 2.84 ± 0.08 | 2.51 ± 0.24
8 | QPTGLLKGLNGFPSAPQ [YMR153W/NUP53] | 3.39 ± 0.14 | 3.3 ± 0.12 | 3.25 ± 0.11 | 3.18 ± 0.1
9 | MDEMDNVIRSLEQEYRL [RMP1] | 1.81 ± 0.064 | 1.21 ± 0.025 | 1.71 ± 0.15 | 2.05 ± 0.072
10 | NSSKYYINEKESSYTEV [SMC4] | 3.2 ± 0.22 | 2.38 ± 0.1 | 2.43 ± 0.12 | 1.89 ± 0.11
11 | SVAEKEEIRSQIDHFKS [SWI3] | 1.73 ± 0.046 | 2.42 ± 0.084 | 2.8 ± 0.07 | 2.65 ± 0.055
12 | SKILSQAPSELELQVAK [RPS7B] | 2.96 ± 0.057 | 3.07 ± 0.047 | 2.95 ± 0.063 | 3 ± 0.051
13 | QKCFKLTHRLGGDTCSS [POP1] | 2.27 ± 0.059 | 1.85 ± 0.056 | 2.55 ± 0.068 | 2.51 ± 0.054
14 | NSRNAIRKLVKNGTIVK [RPL19A] | 2.84 ± 0.07 | 2.9 ± 0.063 | 2.89 ± 0.057 | 2.79 ± 0.066
15 | EAESLLQFHVATYMDND [RPO21] | 2.82 ± 0.1 | 2.7 ± 0.13 | 2.7 ± 0.073 | 2.94 ± 0.15
16 | MTSENPDVLLSRVINVV [RRP6] | 1.39 ± 0.12 | 1.61 ± 0.083 | 1.49 ± 0.12 | 2.27 ± 0.14
17 | KTCAEVIGGNSLFHIVV [SMC3] | 3.05 ± 0.11 | 3.1 ± 0.1 | 2.96 ± 0.071 | 3.01 ± 0.089
18 | LMLGSVNLPGGILRRKS [RRP4] | 1.96 ± 0.058 | 1.46 ± 0.11 | 1.54 ± 0.14 | 1.4 ± 0.047
19 | GSTSLIEGMEQRIIKEL [ARP7] | 3.19 ± 0.12 | 3.23 ± 0.12 | 2.98 ± 0.24 | 2.71 ± 0.21
20 | GDEGYNEDMVRRANFYK [SNF12] | 3.38 ± 0.14 | 3.36 ± 0.17 | 3.44 ± 0.076 | 3.45 ± 0.14
21 | IGGSLARIALRHLEKEG [RPS25A] | 2.52 ± 0.068 | 2.5 ± 0.054 | 1.82 ± 0.082 | 2.51 ± 0.06
22 | RIFAIAFTRKQANQVKR [RPS1A] | 1.59 ± 0.018 | 1.66 ± 0.019 | 1.99 ± 0.031 | 1.98 ± 0.02
23 | CGHRILLKARTKRLVQF [RPC10] | 1.43 ± 0.11 | 1.99 ± 0.13 | 1.68 ± 0.18 | 1.22 ± 0.052
24 | PYDSNNSNTNLNSLSPQ [SWI1] | 2.96 ± 0.049 | 2.87 ± 0.051 | 2.76 ± 0.054 | 2.79 ± 0.04
25 | ADGSSYMEQGNNKIITL [SKI6] | 2.79 ± 0.044 | 3.07 ± 0.059 | 2.82 ± 0.04 | 3.015 ± 0.029
26 | SVDPQSSSTQNVFVILM [DIS3] | 2.83 ± 0.16 | 2.43 ± 0.17 | 2.7 ± 0.075 | 2.92 ± 0.099
